In patent US20090298765A1 (Takeda / Millennium, published 2009):
Non-standard residues stand in square brackets, D forms with d. No end group written: not given here. *: point of attachment. 2‑(indol-3-yl)ethylcarbamoyl = O=C(NCCc1c[nH]c2ccccc12)*; Propanoyl(3-indol-3-yl) = O=C(CCc1c[nH]c2ccccc12)*; Diphenylacetyl = O=C(C(c1ccccc1)c1ccccc1)*; indole‑3‑carbonyl = O=C(c1c[nH]c2ccccc12)*; indole‑3‑acetyl = O=C(Cc1c[nH]c2ccccc12)*; Arg(Me) = CNC(=N)NCCC[C@H](N)C(=O)O; Hydrocinnamoyl = O=C(CCc1ccccc1)*; d4Pal = N[C@H](Cc1ccncc1)C(=O)O; Cha = N[C@@H](CC1CCCCC1)C(=O)O; azaGly = NNC(=O)O

Assays:
[1] = target: T1, human OT7T175 (metastin receptor) (human, UniProt Q969F8 1-398); assay: competition with Cy-5 metastin (40-54) on hOT7T175-CHO cells, FMAT
T1 construct: expressed on CHO cells; also called hOT7T175; hOT7T175-expressed CHO cells
T1 sequence (Q969F8 whole entry L364H): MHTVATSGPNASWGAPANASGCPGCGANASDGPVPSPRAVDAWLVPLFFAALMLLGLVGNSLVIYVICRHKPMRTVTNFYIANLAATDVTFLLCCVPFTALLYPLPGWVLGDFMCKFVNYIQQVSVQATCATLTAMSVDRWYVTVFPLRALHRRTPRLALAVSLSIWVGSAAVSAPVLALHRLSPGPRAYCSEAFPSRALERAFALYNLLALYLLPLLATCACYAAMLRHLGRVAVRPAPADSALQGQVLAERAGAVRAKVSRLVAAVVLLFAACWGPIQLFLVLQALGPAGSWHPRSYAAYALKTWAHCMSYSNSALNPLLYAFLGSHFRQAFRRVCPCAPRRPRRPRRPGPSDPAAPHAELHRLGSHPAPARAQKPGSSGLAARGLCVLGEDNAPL
Protocol: hOT7T175-Expressed CHO cells were cultured in MEM-α medium (nucleic acid-free) containing 10% dialyzed serum. The medium was removed and the adhered cells were washed with PBS. Then, PBS containing 5 mM EDTA was added and the cells were scraped from a flask with a cell scraper.
To each well of a 96-Well Black Clear Bottom Microplate (Applied Biosystems, Inc.), 10 μL of assay buffer containing 1% dimethylsulfoxide was added to examine total binding, 10 μL of 10 μM non-labeled peptide (having the same amino acid sequence as that of labeled one) solution diluted with assay buffer to examine non-specific binding, and 10 μL of a test compound diluted with assay buffer to examine a binding inhibition activity of the test compound, and furthermore, 90 μL each of the cell suspension was dispensed to each well. […] Specific binding is calculated as non-specific binding subtracted from total binding. The binding inhibition activity of a test compound is shown by a ratio of the value obtained by subtracting a measured value in presence of a test compound from the total binding to the specific binding.

[2] = target: T1, human OT7T175 (metastin receptor); assay: cell-based or functional assay
[3] = target: T1, human OT7T175 (metastin receptor); assay: cell-based or functional assay; remark: listed apart in the source

Row | Binder | IC50 [1] [nM] | Ca ion level-increasing activity (FLIPR, 40 s) [2] [EC50/MS10 EC50] | Ca ion level-increasing activity (FLIPR) [3]
1 | [dY]INSF[azaGly]L[Arg(Me)]F-NH2 (also called Compound No. 240) [des(1)-[D-Tyr2,Ile3,AzaGly7,Arg(Me)9]MS10] | 17 | 4.9 | –
2 | [dY]SNSF[azaGly]L[Arg(Me)]F-NH2 (also called Compound No. 239) [des(1)-[D-Tyr2,Ser3,AzaGly7,Arg(Me)9]MS10] | 120 | 6.7 | –
3 | [dY][dN]WNTF[azaGly]L[Arg(Me)]F-NH2 (N-terminus assumed; SMILES CNC(=N)NCCC[C@H](NC(=O)[C@H](CC(C)C)NC(=O)NNC(=O)[C@H](Cc1ccccc1)NC(=O)[C@@H](NC(=O)[C@H](CC(N)=O)NC(=O)[C@H](Cc1c[nH]c2ccccc12)NC(=O)[C@@H](CC(N)=O)NC(=O)[C@H](N)Cc1ccc(O)cc1)[C@@H](C)O)C(=O)N[C@@H](Cc1ccccc1)C(N)=O, also called Compound No. 298) [[D-Tyr1,D-Asn2,Thr5,AzaGly7,Arg(Me)9]MS10] | 0.25 | 1.8 | 5 x Metastin (1-54)
4 | [dY]NWNTF[azaGly]L[Arg(Me)]F-NH2 (N-terminus assumed; SMILES CNC(=N)NCCC[C@H](NC(=O)[C@H](CC(C)C)NC(=O)NNC(=O)[C@H](Cc1ccccc1)NC(=O)[C@@H](NC(=O)[C@H](CC(N)=O)NC(=O)[C@H](Cc1c[nH]c2ccccc12)NC(=O)[C@H](CC(N)=O)NC(=O)[C@H](N)Cc1ccc(O)cc1)[C@@H](C)O)C(=O)N[C@@H](Cc1ccccc1)C(N)=O, also called Compound No. 297) [[D-Tyr1,Thr5,AzaGly7,Arg(Me)9]MS10] | 0.93 | 5.5 | 1 x Metastin (1-54)
5 | {Propanoyl(3-indol-3-yl)}-NSF[azaGly]L[Arg(Me)]F-NH2 (also: also named 1-(3-indolyl)propionyl cap, also called Compound No. 260) [des(1-3)-3-(3-Indolyl)propionyl-[AzaGly7,Arg(Me)9]MS10] | 320 | 4.3 | 5 x Metastin (1-54)
6 | {indole‑3‑carbonyl}-NSF[azaGly]L[Arg(Me)]F-NH2 (also called Compound No. 265) [des(1-3)-Indole-3-carbonyl-[AzaGly7,Arg(Me)9]MS10] | 95 | 4.4 | 3 x Metastin (1-54)
7 | {indole‑3‑acetyl}-NSF[azaGly]L[Arg(Me)]F-NH2 (SMILES CNC(=N)NCCC[C@H](NC(=O)[C@H](CC(C)C)NC(=O)NNC(=O)[C@H](Cc1ccccc1)NC(=O)[C@H](CO)NC(=O)[C@H](CC(N)=O)NC(=O)Cc1c[nH]c2ccccc12)C(=O)N[C@@H](Cc1ccccc1)C(N)=O, also called Compound No. 266) [des(1-3)-Indole-3-acetyl-[AzaGly7,Arg(Me)9]MS10] | 230 | 5.4 | 2 x Metastin (1-54)
8 | Diphenylacetyl-NSF[azaGly]L[Arg(Me)]F-NH2 (SMILES CNC(=N)NCCC[C@H](NC(=O)[C@H](CC(C)C)NC(=O)NNC(=O)[C@H](Cc1ccccc1)NC(=O)[C@H](CO)NC(=O)[C@H](CC(N)=O)NC(=O)C(c1ccccc1)c1ccccc1)C(=O)N[C@@H](Cc1ccccc1)C(N)=O, also called Compound No. 268) [des(1-3)-Diphenylacetyl-[AzaGly7,Arg(Me)9]MS10] | 550 | 4.5 | 1 x Metastin (1-54)
9 | Hydrocinnamoyl-NSF[azaGly]L[Arg(Me)]F-NH2 (also called Compound No. 269) [des(1-3)-3-Phenylpropionyl-[AzaGly7,Arg(Me)9]MS10] | 470 | 3.4 | 3 x Metastin (1-54)
10 | {2‑(indol-3-yl)ethylcarbamoyl}-NSF[azaGly]L[Arg(Me)]F-NH2 (SMILES CNC(=N)NCCC[C@H](NC(=O)[C@H](CC(C)C)NC(=O)NNC(=O)[C@H](Cc1ccccc1)NC(=O)[C@H](CO)NC(=O)[C@H](CC(N)=O)NC(=O)NCCc1c[nH]c2ccccc12)C(=O)N[C@@H](Cc1ccccc1)C(N)=O, also called Compound No. 279) [des(1-3)-2-(Indol-3-yl)ethylcarbamoyl-[AzaGly7,Arg(Me)9]MS10] | 29 | 6.4 | 5 x Metastin (1-54)
11 | [dY]NWNSFGL[Arg(Me)]F-NH2 (also: bond 6-7 CONH replaced by CSNH (thioamide), also called Compound No. 296) [[6Ψ7,CSNH,D-Tyr1,Arg(Me)9]MS10] | 14 | 5.2 | 3 x Metastin (1-54)
12 | [d4Pal][dN][Cha]NSF[azaGly]L[Arg(Me)]F-NH2 (N-terminus assumed; SMILES CNC(=N)NCCC[C@H](NC(=O)[C@H](CC(C)C)NC(=O)NNC(=O)[C@H](Cc1ccccc1)NC(=O)[C@H](CO)NC(=O)[C@H](CC(N)=O)NC(=O)[C@H](CC1CCCCC1)NC(=O)[C@@H](CC(N)=O)NC(=O)[C@H](N)Cc1ccncc1)C(=O)N[C@@H](Cc1ccccc1)C(N)=O, also called Compound No. 306) [[D-Pya(4)1,D-Asn2,Cha3,AzaGly7,Arg(Me)9]MS10] | 4.4 | – | 2 x Metastin (1-54)
13 | YNWNSFGLXF (Nar9; C-terminal amide, also called Compound No. 310) [[Nar9]MS10] | 310 | 2 | 3 x Metastin (1-54)
